Source: the supplement of paper PMC7877785
± gives the uncertainty stated by the source.

Assay: self-splicing fitness, log relative to wild type (ln ratio); higher = more splicing; Tetrahymena group I intron in knt gene, E. coli kanamycin selection, DiMSum; sequences stand for … in CUCUCU…GGAGGGAAAAGUUAUCAGGCAUGCACCUGGUAGCUAGUCUUUAAACCAAUAGAUUGCAUCGGUUUAAAAGGCAAGACCGUCAAAUUGCGGGAAAGGGGUCAACAGCCGUUCAGUACCAAGUCUCAGGGGAAACUUUGAGAUGGCCUUGCAAAGGGUAUGGUAAUAAGCUGACGGACAUGGUCCUAACCACGCAGCCAAGUCCUAAGUCAACAGAUCUUCUGUUGAUAUGGAUGCAGUUCACAGACUAAAUGUCGGUCGGGGAAGAUGUAUUCUUCUCAUAAGAUAUAGUCGGACCUCUCCUUAAUGGGAGCUAGCGGAUGAAGUGAUGCAACACUGGAGCCGCUGGGAACUAAUUUGUAUGCGAAAGUAUAUUGAUUAGUUUUGGAGUACUCGUGGUCG
Outline: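 Library with all eight P1ex-region intron nucleotides randomised, intron inside the knt kanamycin-resistance gene on pET-22b(+), in E. coli BL21(DE3). Cells grew overnight at 37°C or 30°C on LB agar with or without 25 μg/mL kanamycin (plus 100 μg/mL carbenicillin, 50 μM IPTG, 0.2% rhamnose), in six replicate transformations. Pooled colonies were amplicon-sequenced on Illumina HiSeq 2500. DiMSum fitness is the error-weighted combination of wild-type-normalised replicate fold changes, kanamycin versus none.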

Sequence | self-splicing fitness (ln) (30 °C) | self-splicing fitness (ln) (37 °C)
GUUUAGCAAUAUUACGCGCU | -1.52 ± 0.29 | -0.397 ± 0.44
ACAUAGCAAUAUUACGGGAU | -1.88 ± 0.1 | -0.904 ± 0.12
GUUUAGCAAUAUUACGCAGU | -2.92 ± 0.17 | -2.05 ± 0.22
ACAAAGCAAUAUUACGUCGG | -2.14 ± 0.11 | -0.989 ± 0.12
AGGCAGCAAUAUUACGGCUG | -2.3 ± 0.35 | –
UUGAAGCAAUAUUACGAUUU | -1.58 ± 0.17 | -0.941 ± 0.18
CCAGAGCAAUAUUACGACGG | -2.88 ± 0.18 | -2.02 ± 0.28
CAAAAGCAAUAUUACGAGGA | -3.08 ± 0.19 | -2.14 ± 0.15
AUGUAGCAAUAUUACGGACU | -0.734 ± 0.11 | -0.231 ± 0.14
UUAGAGCAAUAUUACGUCUC | -3.56 ± 0.25 | -2.82 ± 0.34
GGGUAGCAAUAUUACGCUAC | -1.81 ± 0.34 | –
UAUGAGCAAUAUUACGUAGA | -2.7 ± 0.18 | -2.46 ± 0.2
UCCAAGCAAUAUUACGGAUU | -4.35 ± 0.2 | -3.1 ± 0.18
CAGUAGCAAUAUUACGUCCA | -2.28 ± 0.21 | -1.83 ± 0.28
UGGGAGCAAUAUUACGGUCG | -1.47 ± 0.12 | -0.961 ± 0.2
UGAAAGCAAUAUUACGCGUA | -1.31 ± 0.12 | -0.174 ± 0.13
AGGCAGCAAUAUUACGACUU | -0.0645 ± 0.048 | 0.187 ± 0.065
CAUCAGCAAUAUUACGGGAU | – | -1.88 ± 0.22
AGAAAGCAAUAUUACGAAUU | -0.791 ± 0.089 | -1.32 ± 0.11
CAUCAGCAAUAUUACGGUUA | -0.767 ± 0.1 | -0.102 ± 0.1
GUGUAGCAAUAUUACGAACA | -1.66 ± 0.16 | -0.829 ± 0.12
UCAGAGCAAUAUUACGGAAU | -2.94 ± 0.17 | -2.22 ± 0.15
GCAGAGCAAUAUUACGGACA | – | -0.844 ± 0.3
GCGGAGCAAUAUUACGGAUU | -3.69 ± 0.27 | -1.28 ± 0.2
GCACAGCAAUAUUACGCAAG | -3.59 ± 0.24 | -2.51 ± 0.19
GGUUAGCAAUAUUACGAACU | -1.88 ± 0.27 | -0.492 ± 0.34
CCGCAGCAAUAUUACGUUCC | -3.27 ± 0.41 | -1.54 ± 0.43

Sequence | self-splicing fitness (ln) (30 °C) | self-splicing fitness (ln) (37 °C)
AGUAAGCAAUAUUACGGUCG | -1.95 ± 0.083 | -0.559 ± 0.087
GAACAGCAAUAUUACGACAU | -0.575 ± 0.011 | -0.153 ± 0.032
UUUCAGCAAUAUUACGCCUC | – | -1.38 ± 0.41
GUAAAGCAAUAUUACGAACA | -0.969 ± 0.15 | 0.323 ± 0.16
AGAUAGCAAUAUUACGGCAG | -0.945 ± 0.12 | -0.735 ± 0.14
GCGCAGCAAUAUUACGGCGC | -2.58 ± 0.21 | -1.98 ± 0.24
UGCCAGCAAUAUUACGCCUG | -2.1 ± 0.16 | -0.0397 ± 0.12
AAGAAGCAAUAUUACGUAGU | -2.52 ± 0.16 | -1.14 ± 0.15
CCGGAGCAAUAUUACGGUGA | -3.8 ± 0.31 | -2.29 ± 0.23
CAAAAGCAAUAUUACGAUAU | -4.43 ± 0.25 | -2.23 ± 0.18
GUAGAGCAAUAUUACGUCUU | -0.122 ± 0.075 | 0.195 ± 0.083
GGACAGCAAUAUUACGGAGC | -0.749 ± 0.089 | -0.621 ± 0.09
UGCUAGCAAUAUUACGCUCG | -1.2 ± 0.14 | -0.909 ± 0.17
UGAUAGCAAUAUUACGUCUA | 0.0941 ± 0.089 | -0.107 ± 0.094
CAGUAGCAAUAUUACGGUGA | -4.04 ± 0.31 | -2.58 ± 0.24
CGCAAGCAAUAUUACGCUCA | -0.828 ± 0.076 | -0.6 ± 0.088
GACGAGCAAUAUUACGUUCU | -4.53 ± 0.37 | -2.52 ± 0.24
AAUCAGCAAUAUUACGAGAA | -1.61 ± 0.26 | -1.61 ± 0.2
CCAAAGCAAUAUUACGCGUC | -3.17 ± 0.21 | -2.98 ± 0.34
AUAGAGCAAUAUUACGGCUC | -0.971 ± 0.11 | -0.403 ± 0.23
ACGUAGCAAUAUUACGCCCG | -0.224 ± 0.13 | -0.474 ± 0.17
UUCGAGCAAUAUUACGGUGA | -1.33 ± 0.1 | -0.708 ± 0.11
CUCCAGCAAUAUUACGCCAA | – | -2.07 ± 0.27
GAGGAGCAAUAUUACGUCCG | -2.52 ± 0.24 | -2.24 ± 0.31
AAUAAGCAAUAUUACGCCCA | 0.0107 ± 0.1 | -0.447 ± 0.15
CGCCAGCAAUAUUACGGACA | -0.882 ± 0.11 | -0.254 ± 0.11
ACCGAGCAAUAUUACGGGAU | -3.29 ± 0.13 | -2.5 ± 0.15

Sequence | self-splicing fitness (ln) (30 °C) | self-splicing fitness (ln) (37 °C)
AAAAAGCAAUAUUACGCGUU | -2.73 ± 0.11 | -1.44 ± 0.11
CCGGAGCAAUAUUACGAGUA | -3.34 ± 0.27 | -2 ± 0.26
UUUGAGCAAUAUUACGUACU | -3.28 ± 0.43 | –
CACUAGCAAUAUUACGAGCU | -3.44 ± 0.18 | -2.75 ± 0.17
UCCUAGCAAUAUUACGUAUC | -2.65 ± 0.14 | -2.44 ± 0.21
GUCGAGCAAUAUUACGGUCG | -2.44 ± 0.22 | -1.94 ± 0.28
UCCGAGCAAUAUUACGUGCC | -3.03 ± 0.26 | -2.97 ± 0.35
UCUUAGCAAUAUUACGGAGC | -3.74 ± 0.4 | -0.68 ± 0.14
AUUAAGCAAUAUUACGCACG | -1.37 ± 0.16 | -0.648 ± 0.17
GUUAAGCAAUAUUACGCUAU | – | -0.862 ± 0.32
GCGGAGCAAUAUUACGUGGA | -3.37 ± 0.38 | -2.38 ± 0.42
GUCAAGCAAUAUUACGAAGU | -2.51 ± 0.092 | -1.16 ± 0.1
GACGAGCAAUAUUACGCAGG | -2.39 ± 0.2 | -1.6 ± 0.26
GCAAAGCAAUAUUACGCCGU | -2.85 ± 0.21 | -2.46 ± 0.23
CCGUAGCAAUAUUACGAACU | -3.64 ± 0.47 | -1.14 ± 0.28
GCAGAGCAAUAUUACGGUCU | -3.54 ± 0.25 | -2.39 ± 0.27
CCAGAGCAAUAUUACGACUU | -3.55 ± 0.17 | -2.61 ± 0.23
ACACAGCAAUAUUACGCCGU | -2.08 ± 0.13 | -1.13 ± 0.18
CCGGAGCAAUAUUACGCAAA | – | -2.55 ± 0.33
CGACAGCAAUAUUACGCUGA | -3.49 ± 0.28 | -2.66 ± 0.28
CACCAGCAAUAUUACGGGAU | -3.34 ± 0.076 | -1.9 ± 0.076
AACCAGCAAUAUUACGCAAG | -2.54 ± 0.1 | -1 ± 0.1
CCGCAGCAAUAUUACGGGAU | -4.16 ± 0.33 | -1.82 ± 0.16
UCAUAGCAAUAUUACGAGAU | -3.85 ± 0.21 | -3.29 ± 0.26
UGCUAGCAAUAUUACGAGGA | -2.99 ± 0.26 | -1.62 ± 0.17
